Laboratory results from paper PMC12331092, “An arginine switch drives the stepwise activation of β-arrestin by CXCR7” (PLOS Biology, 2025).
Blank lines part the entries; values can stand above or below the binder they belong to. Square brackets hold non-standard residues; d marks the D form. Ends that are not written are not given here. pT = C[C@@H](OP(=O)(O)O)[C@H](N)C(=O)O; pS = N[C@@H](COP(=O)(O)O)C(=O)O

How the values were obtained:
Settings in all cases: both partners purified
[1] = biological target: T1, Rattus norvegicus wild-type β-arrestin2 (Rattus norvegicus, UniProt P29067 1-410); assay: pull-down; 20 μg βarr2 pre-incubated with or without peptide (5:1 peptide:βarr2, 4 °C, 1 h), then GST beads with 30 μg GST-clathrin, 2 h at 4 °C; 20 mM Tris-HCl pH 8.0, 100 mM NaCl, 1 mM DTT; GSH elution, anti-His Western blot
T1 construct: β-arrestin2, Rattus norvegicus, UniProt P29067, cloned into pET-28a; also called βarr2; wild-type βarr2; source: E. coli BL21(DE3)pLysS, purified (Ni-sepharose, HiTrap heparin, Superdex 200 gel filtration); not shown: His6, N-terminal, kept

[2] = biological target: T1, Rattus norvegicus wild-type β-arrestin2; assay: ITC; 1 mM peptide injected (2.5 μL, 200 s intervals) into 200 μM βarr2 in the cell; 298 K; 20 mM HEPES pH 7.0, 200 mM NaCl; two-site model for the wild type
βarr2 R394A mutant = biological target: T2, βarr2 R394A mutant (Rattus norvegicus, UniProt P29067 1-410, R394A); assay: as above
T2 construct: β-arrestin2, rat (as the wild type m1), with R394A; also called R394A (site II); source: purified

βarr2 R166A mutant = biological target: T3, βarr2 R166A mutant (Rattus norvegicus, UniProt P29067 1-410, R166A); assay: as above
T3 construct: β-arrestin2, rat (as the wild type m1), with R166A; also called R166A (site I); source: purified
T3 sequence (P29067 whole entry R166A): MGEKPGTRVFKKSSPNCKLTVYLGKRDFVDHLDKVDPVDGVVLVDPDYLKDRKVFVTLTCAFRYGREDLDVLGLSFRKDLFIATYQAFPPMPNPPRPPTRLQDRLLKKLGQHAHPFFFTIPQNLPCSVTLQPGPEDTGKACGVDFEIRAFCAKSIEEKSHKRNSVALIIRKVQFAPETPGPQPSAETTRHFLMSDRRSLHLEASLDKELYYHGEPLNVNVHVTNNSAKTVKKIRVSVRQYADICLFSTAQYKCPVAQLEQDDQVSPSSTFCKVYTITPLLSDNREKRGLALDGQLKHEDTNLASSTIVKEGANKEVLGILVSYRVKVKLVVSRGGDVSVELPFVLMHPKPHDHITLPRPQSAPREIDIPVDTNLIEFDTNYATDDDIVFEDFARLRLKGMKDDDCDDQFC

T1 sequence (P29067 whole entry): as the sequence (P29067 whole entry R166A) above, with A166R counted along it
T2 sequence (P29067 whole entry R394A): as the sequence (P29067 whole entry R166A) above, with A166R, R394A counted along it

binding result [1]: binds
B1: C7pp3, phosphopeptide from the carboxyl terminus of CXCR7 (residues 346-362) (peptide, UniProt P25106 346-362, looked up)
peptide: A[pS]RV[pS]E[pT]EY[pS]ALEQ[pS][pT]K
notes: CXCR7, C-terminal residues 346-362; source: synthetic peptide (NovoPep and Tufts University Core Facility)

binding result [2]: binds
Kd (βarr2 R394A mutant): 1.1 µM
Kd (βarr2 R166A mutant): 16.4 µM
B2: C7pp2, phosphopeptide from the carboxyl terminus of CXCR7 (residues 346-359) (peptide, UniProt P25106 346-359, looked up)
peptide: ASRV[pS]E[pT]EY[pS]ALEQ
notes: CXCR7 (atypical chemokine receptor), C-terminal residues 346-359; also called distal phospho-site cluster PxPxxP; source: synthetic peptide (NovoPep and Tufts University Core Facility)
